Each block holds one binder with its values, some of them ahead of it.
Tests used:
Conditions in all cases: partners not purified
[1] = biological target: T1, thiazide-sensitive sodium chloride cotransporter (NCC) (mouse (endogenous in mDCT15 cells and …, UniProt P59158 1-1002)); experiment: co-IP; mouse kidney cortex homogenates (RIPA buffer), anti-NCC antibody coupled to resin (Pierce Co-Immunoprecipitation Kit), eluate blotted for αENaC; mice on high salt (4%) chow treated with vehicle (25% DMSO in saline) or Aldo (4 ug/day, 10 d)
T1 construct: thiazide-sensitive sodium-chloride cotransporter (NCC), endogenous in mouse mDCT15 cells and mouse kidney cortex; Precipitated with an anti-NCC antibody coupled to resin (Pierce Co-Immunoprecipitation Kit); source: endogenous, mDCT15 whole cell lysate; endogenous, mouse kidney cortex homogenate
T1 sequence (looked up): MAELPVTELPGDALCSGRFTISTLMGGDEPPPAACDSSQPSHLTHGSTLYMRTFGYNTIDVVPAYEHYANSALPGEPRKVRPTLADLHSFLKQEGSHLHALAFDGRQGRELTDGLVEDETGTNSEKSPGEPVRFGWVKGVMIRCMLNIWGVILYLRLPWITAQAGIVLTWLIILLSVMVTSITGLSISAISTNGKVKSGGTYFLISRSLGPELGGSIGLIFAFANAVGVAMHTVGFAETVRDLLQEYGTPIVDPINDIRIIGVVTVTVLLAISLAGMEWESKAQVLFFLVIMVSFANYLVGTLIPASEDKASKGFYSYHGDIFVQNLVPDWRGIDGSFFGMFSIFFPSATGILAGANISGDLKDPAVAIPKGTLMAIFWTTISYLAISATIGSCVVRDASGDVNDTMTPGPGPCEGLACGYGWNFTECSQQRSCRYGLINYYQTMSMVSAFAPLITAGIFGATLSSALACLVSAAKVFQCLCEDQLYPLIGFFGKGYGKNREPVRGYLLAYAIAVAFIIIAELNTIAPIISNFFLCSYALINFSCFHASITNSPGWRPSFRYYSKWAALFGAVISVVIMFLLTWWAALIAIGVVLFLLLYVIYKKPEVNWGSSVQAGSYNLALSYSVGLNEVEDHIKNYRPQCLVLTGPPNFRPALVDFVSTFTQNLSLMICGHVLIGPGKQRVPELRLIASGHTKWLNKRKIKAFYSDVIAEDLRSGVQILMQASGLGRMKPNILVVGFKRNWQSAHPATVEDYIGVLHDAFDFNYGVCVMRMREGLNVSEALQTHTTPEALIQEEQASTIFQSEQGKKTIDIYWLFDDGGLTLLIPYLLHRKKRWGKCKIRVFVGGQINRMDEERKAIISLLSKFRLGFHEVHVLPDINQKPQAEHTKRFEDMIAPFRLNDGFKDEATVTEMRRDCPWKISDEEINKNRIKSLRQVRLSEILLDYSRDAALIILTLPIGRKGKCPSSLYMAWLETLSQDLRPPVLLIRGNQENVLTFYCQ

[2] = biological target: T1, thiazide-sensitive sodium chloride …; experiment: co-IP; mDCT15 whole cell lysates (about 800 ug protein per column), anti-NCC antibody coupled to resin (Pierce Co-Immunoprecipitation Kit), eluate blotted for αENaC; cells treated with vehicle (EtOH), Aldo (100 nM, 48 hrs), Aldo + SGK1 inhibitor (GSK690394, 6 uM, 60 min) or SGK1 inhibitor alone
[3] = biological target: T2, NCC-pBIND (full-length NCC fused to the GAL4 DNA-binding domain) (UniProt P59158 1-1002); experiment: two-hybrid; Checkmate mammalian two-hybrid in transiently transfected COS-7 cells; NCC-pBIND (GAL4 DNA-binding domain) with α- or γ-pACT (VP16) and pG5luc; firefly luciferase normalized to Renilla, fold change of negative control (empty pBIND + pACT); with or without co-transfected SGK1 or WNK4; read 48 hours after transfection
T2 construct: source: COS-7, transiently transfected, mammalian two-hybrid fusion
T2 sequence (looked up): T1 sequence (looked up)

fold change of αENaC co-precipitated with NCC, Aldo against vehicle [1]: 3.07 fold change/vehicle | fold change of αENaC co-precipitated with NCC, Aldo + SGK1 inhibitor against vehicle [2]: 1.55 fold change/vehicle | fold change of αENaC co-precipitated with NCC, Aldo against vehicle [2]: 2.05 fold change/vehicle | fold change of αENaC relative to NCC in the CoIP fractions, Aldo against vehicle [2]: 1.55 fold change/vehicle
B1: epithelial sodium channel alpha subunit (αENaC) (natural protein, UniProt Q61180 1-699, looked up)
chain: MLDHTRAPELNLDLDLDVSNSPKGSMKGNNFKEQDLCPPLPMQGLGKGDKREEQALGPEPSEPRQPTEEEEALIEFHRSYRELFQFFCNNTTIHGAIRLVCSKHNRMKTAFWAVLWLCTFGMMYWQFALLFEEYFSYPVSLNINLNSDKLVFPAVTVCTLNPYRYTEIKEDLEELDRITEQTLFDLYKYNSSYTRQAGGRRRSTRDLRGALPHPLQRLRTPPPPNPARSARSASSSVRDNNPQVDRKDWKIGFQLCNQNKSDCFYQTYSSGVDAVREWYRFHYINILSRLPDTSPALEEEALGSFIFTCRFNQAPCNQANYSQFHHPMYGNCYTFNNKNNSNLWMSSMPGVNNGLSLTLRTEQNDFIPLLSTVTGARVMVHGQDEPAFMDDGGFNVRPGVETSISMRKEALDSLGGNYGDCTENGSDVPVKNLYPSKYTQQVCIHSCFQENMIKKCGCAYIFYPKPKGVEFCDYLKQSSWGYCYYKLQAAFSLDSLGCFSKCRKPCSVTNYKLSAGYSRWPSVKSQDWIFEMLSLQNNYTINNKRNGVAKLNIFFKELNYKTNSESPSVTMVSLLSNLGSQWSLWFGSSVLSVVEMAELIFDLLVITLIMLLHRFRSRYWSPGRGARGAREVASTPASSFPSRFCPHPTSPPPSLPQQGTTPPLALTAPPPAYATLGPSASPLDSAVPGSSACAPAMAL
notes: epithelial sodium channel (ENaC) alpha subunit, endogenous in mouse mDCT15 cells and mouse kidney cortex; Detected by immunoblot with an αENaC antibody in the NCC precipitate; source: endogenous, mDCT15 whole cell lysate; endogenous, mouse kidney cortex homogenate

two-hybrid luciferase signal, fold of negative control [3]: 7.74 fold change of negative control | two-hybrid luciferase signal, fold of negative control, with SGK1 co-transfected [3]: 14.7 fold change of negative control
B2: α-pACT (full-length αENaC fused to the VP16 activation domain) (natural protein, UniProt Q61180 1-699, looked up)
chain: B1 chain
notes: epithelial sodium channel (ENaC) alpha subunit, full-length clone in pACT; source: COS-7, transiently transfected, mammalian two-hybrid fusion

two-hybrid luciferase signal, fold of negative control [3]: 4.33 fold change of negative control
B3: γ-pACT (full-length γENaC fused to the VP16 activation domain) (natural protein, UniProt Q9WU39 1-655, looked up)
chain: MAPGEKIKAKIKKNLPVRGPQAPTIKDLMHWYCLNTNTHGCRRIVVSRGRLRRLLWIAFTLTAVALIIWQCALLVFSFYTVSVSIKVHFQKLDFPAVTICNINPYKYSAVSDLLTDLDSETKQALLSLYGVKDVLDSTPRKRREAGSMRSTWEGTPPRFLNLIPLLVFNENEKGKARDFFTGRKRKISGKIIHKASNVMHVHESKKLVGFQLCSNDTSDCATYTFSSGINAIQEWYKLHYMNIMAQVPLEKKINMSYSAEELLVTCFFDGMSCDARNFTLFHHPMYGNCYTFNNRENATILSTSMGGSEYGLQVILYINEDEYNPFLVSSTGAKVLVHQQNEYPFIEDVGTEIETAMSTSIGMHLTESFKLSEPYSQCTEDGSDVPVTNIYNAAYSLQICLYSCFQTKMVEKCGCAQYSQPLPPAANYCNYQQHPNWMYCYYQLYQAFVREELGCQSVCKQSCSFKEWTLTTSLAQWPSEASEKWLLNVLTWDQSQQINKKLNKTDLAKLLIFYKDLNQRSIMESPANSIEMLLSNFGGQLGLWMSCSVVCVIEIIEVFFIDFFSIIARRQWQKAKDWWARRRTPPSTETPSSQQGQDNPALDTDDDLPTFTSAMRLPPAPEAPVPGTPPPRYNTLRLDSAFSSQLTDTQLTNEF
notes: epithelial sodium channel (ENaC) gamma subunit, full-length clone in pACT; source: COS-7, transiently transfected, mammalian two-hybrid fusion

Source: PMC5482882, “Aldosterone Modulates the Association between NCC and ENaC” (Scientific Reports, 2017)
